Laboratory results published in paper PMC4585913, “Crystal structure of Streptococcus pneumoniae pneumolysin provides key insights into early steps of pore formation” (Scientific Reports, 2015).

Target: PLY R208A (Streptococcus pneumoniae) (UniProt P0C2J9)

Substance: PLY R208A (from UniProt P0C2J9 2-470) (natural protein)
- cytolytic activity on human red blood cells, percent of native PLY activity (% native PLY activity): 2.5
